US20140087995A1 (published 2014)
Where a chain is given by its changes, count along the chain named. Numbered stars: 1 amine (or outer) side, 2 acyl side, 3 side chain; on linkers, the order of the positions; unused ones are H or OH. Bridge positions count the residues as written; N and C are the ends. Side chains are listed from the residue outwards. Ends that are not written are not given here. * marks the point of attachment. C20 diacid = O=C(O)CCCCCCCCCCCCCCCCCCC(=O)*; γGlu = O=C(O)[C@H](CCC(=O)[*:2])N[*:1]; AEEA = NCCOCCOCC(=O)O

T1: human amylin receptor (amylin 3(a) receptor: human calcitonin receptor plus RAMP-3) (human, UniProt P30988 25-474; O60896 24-148, limits assumed)
T1 sequence (looked up) 1: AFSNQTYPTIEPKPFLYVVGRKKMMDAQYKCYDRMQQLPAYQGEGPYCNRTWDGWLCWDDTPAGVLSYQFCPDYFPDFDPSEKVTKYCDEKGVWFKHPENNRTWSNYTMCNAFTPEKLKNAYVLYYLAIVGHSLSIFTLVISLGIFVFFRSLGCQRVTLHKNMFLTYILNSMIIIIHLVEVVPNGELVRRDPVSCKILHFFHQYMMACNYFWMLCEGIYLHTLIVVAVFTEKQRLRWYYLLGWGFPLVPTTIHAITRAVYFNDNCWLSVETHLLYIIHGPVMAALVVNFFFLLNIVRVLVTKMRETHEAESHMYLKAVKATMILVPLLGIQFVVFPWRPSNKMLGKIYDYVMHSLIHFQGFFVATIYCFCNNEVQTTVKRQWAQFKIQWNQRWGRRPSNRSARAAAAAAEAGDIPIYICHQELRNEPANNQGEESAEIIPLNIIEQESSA
T1 sequence (looked up) 2: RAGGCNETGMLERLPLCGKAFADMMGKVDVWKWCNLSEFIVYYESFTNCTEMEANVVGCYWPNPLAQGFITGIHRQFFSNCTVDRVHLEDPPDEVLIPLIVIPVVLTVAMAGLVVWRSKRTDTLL

T2: human calcitonin receptor (human, UniProt P30988 25-474)
T2 sequence (looked up): T1 sequence (looked up) 1

B1: N^α1-[(4S)-4-carboxy-4-(19-carboxynonadecanoylamino)butanoyl]-[Arg17,Pro21,Pro27,Arg34]-h-amylin (peptide)
peptide: KCNTATCATQRLANFLRHSSPNFGAIPSSTNVGRNTY
modifications: C20 diacid-gGlu on the alpha amino group of the N-terminal residue; Cys2-Cys7 disulfide and C-terminal amide as in human amylin
notes: also called compound 39
B2: N^α1-[(4S)-4-carboxy-4-(19-carboxynonadecanoylamino)butanoyl]-[Glu14,Arg17,Pro21,Pro27,Pro31]-h-amylin (peptide)
peptide: {C20 diacid-γGlu}-KCNTATCATQRLAEFLRHSSPNFGAIPSSTPVGSNTY-NH2
modifications: disulfide 2-7
SMILES: CC[C@H](C)[C@H](NC(=O)[C@H](C)NC(=O)CNC(=O)[C@H](Cc1ccccc1)NC(=O)[C@H](CC(N)=O)NC(=O)[C@@H]1CCCN1C(=O)[C@H](CO)NC(=O)[C@H](CO)NC(=O)[C@H](Cc1c[nH]cn1)NC(=O)[C@H](CCCNC(=N)N)NC(=O)[C@H](CC(C)C)NC(=O)[C@H](Cc1ccccc1)NC(=O)[C@H](CCC(=O)O)NC(=O)[C@H](C)NC(=O)[C@H](CC(C)C)NC(=O)[C@H](CCCNC(=N)N)NC(=O)[C@H](CCC(N)=O)NC(=O)[C@@H](NC(=O)[C@H](C)NC(=O)[C@@H]1CSSC[C@H](NC(=O)[C@H](CCCCN)NC(=O)CC[C@H](NC(=O)CCCCCCCCCCCCCCCCCCC(=O)O)C(=O)O)C(=O)N[C@@H](CC(N)=O)C(=O)N[C@@H]([C@@H](C)O)C(=O)N[C@@H](C)C(=O)N[C@@H]([C@@H](C)O)C(=O)N1)[C@@H](C)O)C(=O)N1CCC[C@H]1C(=O)N[C@@H](CO)C(=O)N[C@@H](CO)C(=O)N[C@H](C(=O)N1CCC[C@H]1C(=O)N[C@H](C(=O)NCC(=O)N[C@@H](CO)C(=O)N[C@@H](CC(N)=O)C(=O)N[C@H](C(=O)N[C@@H](Cc1ccc(O)cc1)C(N)=O)[C@@H](C)O)C(C)C)[C@@H](C)O
notes: also called compound 31
B3: N^α1-[(4S)-4-carboxy-4-(19-carboxynonadecanoylamino)butanoyl]-[Arg17,Pro21,Pro27,His34]-h-amylin (peptide)
peptide: B1 peptide with R34H
modifications: C20 diacid-gGlu on the alpha amino group of the N-terminal residue; Cys2-Cys7 disulfide and C-terminal amide as in human amylin
notes: also called compound 40
B4: N^α1-[(4S)-4-carboxy-4-(19-carboxynonadecanoylamino)butanoyl]-[Arg17,Pro21,Pro27,Glu35]-h-amylin (peptide)
peptide: B1 peptide with R34S, N35E
modifications: C20 diacid-gGlu on the alpha amino group of the N-terminal residue; Cys2-Cys7 disulfide and C-terminal amide as in human amylin
notes: also called compound 23
B5: N^α1-[(4S)-4-carboxy-4-(19-carboxynonadecanoylamino)butanoyl]-[Glu14,Arg17,Pro21,Pro27,Arg35]-h-amylin (peptide)
peptide: {C20 diacid-γGlu}-KCNTATCATQRLAEFLRHSSPNFGAIPSSTNVGSRTY-NH2
modifications: disulfide 2-7
SMILES: CC[C@H](C)[C@H](NC(=O)[C@H](C)NC(=O)CNC(=O)[C@H](Cc1ccccc1)NC(=O)[C@H](CC(N)=O)NC(=O)[C@@H]1CCCN1C(=O)[C@H](CO)NC(=O)[C@H](CO)NC(=O)[C@H](Cc1c[nH]cn1)NC(=O)[C@H](CCCNC(=N)N)NC(=O)[C@H](CC(C)C)NC(=O)[C@H](Cc1ccccc1)NC(=O)[C@H](CCC(=O)O)NC(=O)[C@H](C)NC(=O)[C@H](CC(C)C)NC(=O)[C@H](CCCNC(=N)N)NC(=O)[C@H](CCC(N)=O)NC(=O)[C@@H](NC(=O)[C@H](C)NC(=O)[C@@H]1CSSC[C@H](NC(=O)[C@H](CCCCN)NC(=O)CC[C@H](NC(=O)CCCCCCCCCCCCCCCCCCC(=O)O)C(=O)O)C(=O)N[C@@H](CC(N)=O)C(=O)N[C@@H]([C@@H](C)O)C(=O)N[C@@H](C)C(=O)N[C@@H]([C@@H](C)O)C(=O)N1)[C@@H](C)O)C(=O)N1CCC[C@H]1C(=O)N[C@@H](CO)C(=O)N[C@@H](CO)C(=O)N[C@H](C(=O)N[C@@H](CC(N)=O)C(=O)N[C@H](C(=O)NCC(=O)N[C@@H](CO)C(=O)N[C@@H](CCCNC(=N)N)C(=O)N[C@H](C(=O)N[C@@H](Cc1ccc(O)cc1)C(N)=O)[C@@H](C)O)C(C)C)[C@@H](C)O
notes: also called compound 16
B6: N^α1-[(4S)-4-carboxy-4-(19-carboxynonadecanoylamino)butanoyl]-[Arg17,Pro21,Pro27,Pro31,Glu35]-h-amylin (peptide)
peptide: {C20 diacid-γGlu}-KCNTATCATQRLANFLRHSSPNFGAIPSSTPVGSETY-NH2
modifications: disulfide 2-7
SMILES: CC[C@H](C)[C@H](NC(=O)[C@H](C)NC(=O)CNC(=O)[C@H](Cc1ccccc1)NC(=O)[C@H](CC(N)=O)NC(=O)[C@@H]1CCCN1C(=O)[C@H](CO)NC(=O)[C@H](CO)NC(=O)[C@H](Cc1c[nH]cn1)NC(=O)[C@H](CCCNC(=N)N)NC(=O)[C@H](CC(C)C)NC(=O)[C@H](Cc1ccccc1)NC(=O)[C@H](CC(N)=O)NC(=O)[C@H](C)NC(=O)[C@H](CC(C)C)NC(=O)[C@H](CCCNC(=N)N)NC(=O)[C@H](CCC(N)=O)NC(=O)[C@@H](NC(=O)[C@H](C)NC(=O)[C@@H]1CSSC[C@H](NC(=O)[C@H](CCCCN)NC(=O)CC[C@H](NC(=O)CCCCCCCCCCCCCCCCCCC(=O)O)C(=O)O)C(=O)N[C@@H](CC(N)=O)C(=O)N[C@@H]([C@@H](C)O)C(=O)N[C@@H](C)C(=O)N[C@@H]([C@@H](C)O)C(=O)N1)[C@@H](C)O)C(=O)N1CCC[C@H]1C(=O)N[C@@H](CO)C(=O)N[C@@H](CO)C(=O)N[C@H](C(=O)N1CCC[C@H]1C(=O)N[C@H](C(=O)NCC(=O)N[C@@H](CO)C(=O)N[C@@H](CCC(=O)O)C(=O)N[C@H](C(=O)N[C@@H](Cc1ccc(O)cc1)C(N)=O)[C@@H](C)O)C(C)C)[C@@H](C)O
notes: also called compound 28
B7: N^ε1-[2-[2-[2-(19-carboxynonadecanoylamino)ethoxy]ethoxy]acetyl]-[Arg17,Pro21,Pro27]-h-amylin (peptide)
peptide: K([AEEA-C20 diacid])CNTATCATQRLANFLRHSSPNFGAIPSSTNVGSNTY-NH2
modifications: disulfide 2-7; N-terminus assumed
SMILES: CC[C@H](C)[C@H](NC(=O)[C@H](C)NC(=O)CNC(=O)[C@H](Cc1ccccc1)NC(=O)[C@H](CC(N)=O)NC(=O)[C@@H]1CCCN1C(=O)[C@H](CO)NC(=O)[C@H](CO)NC(=O)[C@H](Cc1c[nH]cn1)NC(=O)[C@H](CCCNC(=N)N)NC(=O)[C@H](CC(C)C)NC(=O)[C@H](Cc1ccccc1)NC(=O)[C@H](CC(N)=O)NC(=O)[C@H](C)NC(=O)[C@H](CC(C)C)NC(=O)[C@H](CCCNC(=N)N)NC(=O)[C@H](CCC(N)=O)NC(=O)[C@@H](NC(=O)[C@H](C)NC(=O)[C@@H]1CSSC[C@H](NC(=O)[C@@H](N)CCCCNC(=O)COCCOCCNC(=O)CCCCCCCCCCCCCCCCCCC(=O)O)C(=O)N[C@@H](CC(N)=O)C(=O)N[C@@H]([C@@H](C)O)C(=O)N[C@@H](C)C(=O)N[C@@H]([C@@H](C)O)C(=O)N1)[C@@H](C)O)C(=O)N1CCC[C@H]1C(=O)N[C@@H](CO)C(=O)N[C@@H](CO)C(=O)N[C@H](C(=O)N[C@@H](CC(N)=O)C(=O)N[C@H](C(=O)NCC(=O)N[C@@H](CO)C(=O)N[C@@H](CC(N)=O)C(=O)N[C@H](C(=O)N[C@@H](Cc1ccc(O)cc1)C(N)=O)[C@@H](C)O)C(C)C)[C@@H](C)O
notes: also called compound 43
B8: N^α1-[(4S)-4-carboxy-4-(19-carboxynonadecanoylamino)butanoyl]-[His14,Arg17,Pro21,Pro27,Glu35]-h-amylin (peptide)
peptide: {C20 diacid-γGlu}-KCNTATCATQRLAHFLRHSSPNFGAIPSSTNVGSETY-NH2
modifications: disulfide 2-7
SMILES: CC[C@H](C)[C@H](NC(=O)[C@H](C)NC(=O)CNC(=O)[C@H](Cc1ccccc1)NC(=O)[C@H](CC(N)=O)NC(=O)[C@@H]1CCCN1C(=O)[C@H](CO)NC(=O)[C@H](CO)NC(=O)[C@H](Cc1c[nH]cn1)NC(=O)[C@H](CCCNC(=N)N)NC(=O)[C@H](CC(C)C)NC(=O)[C@H](Cc1ccccc1)NC(=O)[C@H](Cc1c[nH]cn1)NC(=O)[C@H](C)NC(=O)[C@H](CC(C)C)NC(=O)[C@H](CCCNC(=N)N)NC(=O)[C@H](CCC(N)=O)NC(=O)[C@@H](NC(=O)[C@H](C)NC(=O)[C@@H]1CSSC[C@H](NC(=O)[C@H](CCCCN)NC(=O)CC[C@H](NC(=O)CCCCCCCCCCCCCCCCCCC(=O)O)C(=O)O)C(=O)N[C@@H](CC(N)=O)C(=O)N[C@@H]([C@@H](C)O)C(=O)N[C@@H](C)C(=O)N[C@@H]([C@@H](C)O)C(=O)N1)[C@@H](C)O)C(=O)N1CCC[C@H]1C(=O)N[C@@H](CO)C(=O)N[C@@H](CO)C(=O)N[C@H](C(=O)N[C@@H](CC(N)=O)C(=O)N[C@H](C(=O)NCC(=O)N[C@@H](CO)C(=O)N[C@@H](CCC(=O)O)C(=O)N[C@H](C(=O)N[C@@H](Cc1ccc(O)cc1)C(N)=O)[C@@H](C)O)C(C)C)[C@@H](C)O
notes: also called compound 30

Each binder was assayed against T1, human amylin receptor (amylin 3(a) …) (assay: cell-based or functional assay).

Binder | hAmylin-R funct. EC50
B1 | 0.217 nM
B2 | 0.112 nM
B3 | 0.164 nM
B4 | 0.34 nM
B5 | 0.363 nM
B6 | 0.22 nM
B7 | 0.141 nM
B8 | 0.134 nM

What follows are binders tested against T2, human calcitonin receptor (assay: cell-based or functional assay).

Binder | Ratio hCT/hAmylin funct. (hCTR EC50 against hAmylin-R EC50) | hCTR funct. EC50
B1 | 11.6 | 2.52 nM
B2 | 6.4 | 0.717 nM
B3 | 16.4 | 2.68 nM
B4 | 8.9 | 3.02 nM
B5 | 6.1 | 2.21 nM
B6 | 9.2 | 2.03 nM
B7 | 6.5 | 0.92 nM
B8 | – | 1.68 nM
